Substrate in the series: O=P(O)(O)OP(=O)(O)O
Kind of series: purified protein. As to conditions: Mg2+ (MgPPi complex is the true substrate; free PPi inhibits).

B1: UDP-glucose pyrophosphorylase (UGPase) (Hordeum vulgare) (protein)
chain: MAAAAVAADSKIDGLRDAVAKLGEISENEKAGFISLVSRYLSGEAEQIEWSKIQTPTDEVVVPYDTLAPPPEDLDAMKALLDKLVVLKLNGGLGTTMGCTGPKSVIEVRNGFTFLDLIVIQIESLNKKYGCSVPLLLMNSFNTHDDTQKIVEKYSNSNIEIHTFNQSQYPRIVTEDFLPLPSKGQTGKDGWYPPGHGDVFPSLNNSGKLDTLLSQGKEYVFVANSDNLGAIVDIKILNHLIHNQNEYCMEVTPKTLADVKGGTLISYEGRVQLLEIAQVPDEHVDEFKSIEKFKIFNTNNLWVNLKAIKRLVDAEALKMEIIPNPKEVDGVKVLQLETAAGAAIRFFEKAIGINVPRSRFLPVKATSDLLLVQSDLYTLVDGYVIRNPARVKPSNPSIELGPEFKKVANFLARFKSIPSIVELDSLKVSGDVSFGSGVVLKGNVTIAAKAGVKLEIPDGAVLENKDINGPEDI
B1: the Km amounted to 60 µM.
